Columns and labels:
[1] = biological target: acetylcholine receptor on acetylcholine receptor-overexpressing TE671 cells; test: cell-based or functional assay
[2] = biological target: acetylcholine receptor; test: SPR, AchR immobilized on chip

For Synake (peptide), the inhibition of acetylcholine receptors (calcium imaging with Fura-2-AM, TE671 cells, nicotine 400 uM) [1] was 500 µM and the Binding affinity (RU) [2] was 14 RU.

— patent US20250011363A1, “OPTIMIZED SHORTENED PEPTIDE THAT BINDS TO ACETYLCHOLINE RECEPTOR, AND USE THEREOF” (SKINMED CO., LTD., priority 2021, published 2025)
